# Measurements from patent publication US20150203548A1 (GOVERNMENT OF THE UNITED STATES OF AMERICA AS REPRESENTED …, published 2015).
# T1: Staphylococcal Enterotoxin B (SEB) (UniProt P01552 28-266)
# T1 sequence: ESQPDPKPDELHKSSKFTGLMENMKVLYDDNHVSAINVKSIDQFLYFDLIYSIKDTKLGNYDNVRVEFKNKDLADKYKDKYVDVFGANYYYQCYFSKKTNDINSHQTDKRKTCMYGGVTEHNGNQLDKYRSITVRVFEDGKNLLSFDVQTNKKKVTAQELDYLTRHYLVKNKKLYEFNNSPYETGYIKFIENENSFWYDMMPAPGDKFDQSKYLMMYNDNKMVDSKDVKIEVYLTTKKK
# Target: T1, Staphylococcal Enterotoxin B (SEB)
# Assay: SPR on SEB-coated chip
binder,measurement,value
sdAb A3 lacking the disulfide (A3-ds) (VHH) VHH: EVQLVESGGGLVQAGDSLRLSATASGRTFSRAVMGWFRQAPGKEREFVAAISAAPGTAYYAFYADSVRGRFSISADSAKNTVYLQMNSLKPEDTAVYYVAADLKMQVAAYMNQRSVDYWGQGTQVTVSSAAALEHHHHHH,binding result,binds
